Here are results for 18 molecules from patent US20030003461, “Truncation selex method” (Gilead Sciences, Inc., published 2003).

B1: T2-18 (ssRNA)
RNA: GGGAGUGGAAAUCAGUGAAUGCUUAUAGUUUCUCGCGUCACACAGACGACUCGCCCGA
modifications: 2'-F pyrimidines
B2: T2-7 (ssRNA)
RNA: GGGAGGAAACGGAAGAAUUGGAAAACACCCGUCCAGACGACUCGCCCGA
modifications: 2'-F pyrimidines
B3: VT30.3 (ssRNA)
RNA: GGGAGGACGAUGCGGAGAAUCAGUGAAUGCUUAUAAAUCUCGUGUCAGACGACUCGCCCGA
modifications: 2'-F pyrimidines
B4: VEGF hyb 15b,19 (ssRNA)
RNA: GGGAGGACGAUGCGGACAUGUAGGAAGAAUUGGAAGAUGCCGCGUCAGACGACUCGCCCGA
modifications: 2'-F pyrimidines
B5: VEGF hyb 3a (VT30.1) (ssRNA)
RNA: GGGAGGACGAUGCGGAACUAGUGAAUGCUUAUACGACCGUGUUGUCAGACGACUCGCCCGA
modifications: 2'-F pyrimidines
B6: T2-11 (ssRNA)
RNA: GGGAGGGACACUGGUUCCGAAGUAUUGUCUUUGUCCUCACAGCAGACGACUCGCCCGA
modifications: 2'-F pyrimidines
B7: VEGF hyb 24 (ssRNA)
RNA: GGGAGGACGAUGCGGAAGGCGACUUGUAUGUGAUUCAGUAUUGGUCAGACGACUCGCCCGA
modifications: 2'-F pyrimidines
B8: T2-20 (ssRNA)
RNA: GGGAGGGGAGGAAACGGAAGAAUUGGAAAACACCCGUCAGCACAGACGACUCGCCCGA
modifications: 2'-F pyrimidines
B9: T2-17 (ssRNA)
RNA: GGGAGAGGAGAAUCAGUGAAUGCUUAUAAAUCUCGUGUCACACAGACGACUCGCCCGA
modifications: 2'-F pyrimidines
B10: VEGF hyb 4b (ssRNA)
RNA: GGGAGGACGAUGCGGAGACUUUGGAAGAAUUGAAUUUGUCCGUGUCAGACGACUCGCCCGA
modifications: 2'-F pyrimidines
B11: T1-3 (ssRNA)
RNA: GGGAGCAGACGACUCGCCCGAGGAGGAGGGGGGCAGACGACUCGCCCGA
modifications: 2'-F pyrimidines
B12: T1-4 (ssRNA)
RNA: GGGAGGCAGACGACUCGCCCGAGGAUACACAUCGUGUGGUCAGACGACUCGCCCGA
modifications: 2'-F pyrimidines
B13: T1-5 (ssRNA)
RNA: GGGAGGGUGAAUGCCAACGAUUUUAUCGCCUAUCGUCACAGACGACUCGCCCGA
modifications: 2'-F pyrimidines
B14: T1-2 (ssRNA)
RNA: GGGAGACCACCAGACGACUCGCCCGAACGCUUAUCCUCUGGUCAGACGACUCGCCCGA
modifications: 2'-F pyrimidines
B15: T1-1 (ssRNA)
RNA: GGGAGCGGACGACCUGGUGAAUGCCAAUAUACUUUUCGCGUCACAGACGACUCGCCCGA
modifications: 2'-F pyrimidines
B16: T1-13 (ssRNA)
RNA: GGGAGCAGACGACUCGCCCGACAGACCACUCGCCCGACAGACGACUCGCCCGA
modifications: 2'-F pyrimidines
B17: T1-15 (ssRNA)
RNA: GGGAGGGGGGGGGAGUGAAUGCUUAUUAGAUCUGCCGUCACAGACGACUCGCCCGA
modifications: 2'-F pyrimidines
B18: T1-16 (ssRNA)
RNA: GGGAGGUCUCCAGACGACUCGCCCGA
modifications: 2'-F pyrimidines

Chain of VEGF (VEGF165?) (P15692 other isoform, or with tags, fused parts or gaps): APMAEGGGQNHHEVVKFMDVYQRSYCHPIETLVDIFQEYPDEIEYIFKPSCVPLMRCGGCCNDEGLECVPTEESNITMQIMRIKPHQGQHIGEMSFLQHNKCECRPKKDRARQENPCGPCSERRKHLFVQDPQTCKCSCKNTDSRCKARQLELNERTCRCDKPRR

The first data set deals with T1, VEGF (Homo sapiens, UniProt P15692-4 P15692-4:27-191). The data set is described as follows: filter; phenotype 4: unaffected. The note with it: tags: recombinant human, R&D Systems; chain copies: 2.
T1 sequence (P15692 other isoform, or with tags, fused parts or gaps): as above
With B1, the binding result is given as “binds”.

A further data set has as its target T1, VEGF. As to the kind of experiment: filter; phenotype 2: somewhat affected. The settings on record: tags: recombinant human, R&D Systems; chain copies: 2.
For B2, the binding result is reported as “binds”.

For B3, the binding result is on record as “binds”.

In the case of B4, the binding result was “binds”.

As to B5, the binding result was “binds”.

For the molecule B6, the binding result is recorded as “binds”.

Consider B7, for which the binding result was “binds”.

B8: the binding result was “binds”.

Consider B9, for which the binding result was “binds”.

B10: the binding result is “binds”.

The next data set concerns the target VEGF (VEGF165?) (Homo sapiens, UniProt P15692-4 P15692-4:27-191). The data set is described as follows: filter; phenotype 5: non-binding with or without 3' fixed sequence. The note with it: tags: R&D Systems; chain copies: 2; label: 32P body.
B11: the binding result is “no binding”.

With B12, the binding result is “no binding”.

Consider B13, for which the binding result was “no binding”.

With B14, the binding result is reported as “no binding”.

As to B15, the binding result is reported as “no binding”.

Turning to B16, the binding result was “no binding”.

In the case of B17, the binding result is “no binding”.

In the case of B18, the binding result is given as “no binding”.
